Target: Flag-NLRP3 (UniProt Q96P20)
Experiment: pull-down; competition: purified cytochrome c (100 ng) or BSA added to Flag-NLRP3 immunoprecipitates with HA-NEK7 lysate, 1 hour at room temperature; NEK7 left on the beads read by immunoblot, ImageJ

Chain of Flag-NLRP3 (Q96P20 whole entry): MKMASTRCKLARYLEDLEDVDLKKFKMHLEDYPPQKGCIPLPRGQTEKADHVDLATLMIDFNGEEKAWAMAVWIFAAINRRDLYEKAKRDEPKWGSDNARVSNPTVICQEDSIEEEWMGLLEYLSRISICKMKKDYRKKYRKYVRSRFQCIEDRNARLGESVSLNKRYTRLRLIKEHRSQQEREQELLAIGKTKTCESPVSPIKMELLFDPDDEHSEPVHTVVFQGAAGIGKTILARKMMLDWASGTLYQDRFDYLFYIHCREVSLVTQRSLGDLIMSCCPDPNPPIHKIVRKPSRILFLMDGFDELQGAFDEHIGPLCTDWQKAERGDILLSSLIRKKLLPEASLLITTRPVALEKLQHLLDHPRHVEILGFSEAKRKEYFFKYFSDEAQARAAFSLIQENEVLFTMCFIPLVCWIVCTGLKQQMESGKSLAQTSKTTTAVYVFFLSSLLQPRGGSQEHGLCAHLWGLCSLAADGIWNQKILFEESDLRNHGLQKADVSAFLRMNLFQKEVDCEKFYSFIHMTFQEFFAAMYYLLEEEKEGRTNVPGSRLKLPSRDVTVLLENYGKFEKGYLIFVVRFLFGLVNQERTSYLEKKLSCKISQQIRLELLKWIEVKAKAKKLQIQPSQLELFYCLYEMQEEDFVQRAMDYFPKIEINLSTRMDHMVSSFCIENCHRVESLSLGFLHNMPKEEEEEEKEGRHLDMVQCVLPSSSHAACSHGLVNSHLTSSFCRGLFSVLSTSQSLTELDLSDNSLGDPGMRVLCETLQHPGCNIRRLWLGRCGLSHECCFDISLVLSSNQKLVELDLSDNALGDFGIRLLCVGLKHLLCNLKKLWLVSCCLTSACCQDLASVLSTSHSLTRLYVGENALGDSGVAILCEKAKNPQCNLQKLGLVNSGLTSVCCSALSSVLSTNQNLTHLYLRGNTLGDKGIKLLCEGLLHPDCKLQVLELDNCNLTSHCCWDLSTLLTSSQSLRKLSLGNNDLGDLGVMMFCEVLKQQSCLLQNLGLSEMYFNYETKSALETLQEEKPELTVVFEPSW

percent reduction of NEK7 bound to Flag-NLRP3 (cytochrome c against BSA): 70%
Substance: Purified cytochrome c protein (Sigma-Aldrich) (from UniProt P99999 1-105) (natural protein)

Source: PMC5193325
